Measured values reported in patent US20110104145A1, “METHOD FOR THE TREATMENT OR PROPHYLAXIS OF CHRONIC INFLAMMATORY DISEASES” (priority 2008, published 2011).

Biological target: CD89 (Fc receptor for IgA) on polymorphonuclear cells (human) (UniProt P24071)
Assay: cell-based or functional assay

CD89 (Fc receptor for IgA) on polymorphonuclear cells (human), sequence (P24071 22-287): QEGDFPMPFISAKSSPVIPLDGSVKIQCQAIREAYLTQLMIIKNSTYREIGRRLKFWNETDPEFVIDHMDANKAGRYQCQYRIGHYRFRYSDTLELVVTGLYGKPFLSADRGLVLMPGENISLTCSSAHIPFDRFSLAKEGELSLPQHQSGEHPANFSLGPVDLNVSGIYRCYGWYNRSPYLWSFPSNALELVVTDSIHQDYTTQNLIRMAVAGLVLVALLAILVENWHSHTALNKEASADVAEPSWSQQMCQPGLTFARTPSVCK

| Substance | percentage blocking (polymorphonuclear cells bound to IgA-coated beads, 2-D migration assay) |
| --- | --- |
| anti-CD89 monoclonal antibody MIP8a | 75 to 90% |
| anti-CD89 monoclonal antibody MY43 | 30% |
